This data set has as its target DDX3wt (Homo sapiens, UniProt O00571 1-662). The data set can be described thus: EMSA; no ATP; EMSA: on ice, protein buffer 25 mM Tris-HCl pH 7.5, 0.5 mM DTT, 20% glycerol, 100 mM NaCl plus 5x binding buffer (10% glycerol, 5 mM MgCl2, 2.5 mM EDTA pH 8, 50 mM NaCl, 50 mM Tris-HCl pH 7.5, 10 mM DTT), 0.05 pmol oligo. Filter binding: 10 mM Hepes pH 7.2, 100 mM KCl, 3 mM MgCl2, 5% glycerol, 1 mM DTT, 50 µg/ml salmon sperm DNA, 50 nM dsDNA, 24°C. The note with it: protein: recombinant; tags: N-terminal ~3 kDa peptide with 6xHis; C-terminal KQGCFGG; label: 5' 6-FAM.

Sequence of DDX3wt (O00571 whole entry): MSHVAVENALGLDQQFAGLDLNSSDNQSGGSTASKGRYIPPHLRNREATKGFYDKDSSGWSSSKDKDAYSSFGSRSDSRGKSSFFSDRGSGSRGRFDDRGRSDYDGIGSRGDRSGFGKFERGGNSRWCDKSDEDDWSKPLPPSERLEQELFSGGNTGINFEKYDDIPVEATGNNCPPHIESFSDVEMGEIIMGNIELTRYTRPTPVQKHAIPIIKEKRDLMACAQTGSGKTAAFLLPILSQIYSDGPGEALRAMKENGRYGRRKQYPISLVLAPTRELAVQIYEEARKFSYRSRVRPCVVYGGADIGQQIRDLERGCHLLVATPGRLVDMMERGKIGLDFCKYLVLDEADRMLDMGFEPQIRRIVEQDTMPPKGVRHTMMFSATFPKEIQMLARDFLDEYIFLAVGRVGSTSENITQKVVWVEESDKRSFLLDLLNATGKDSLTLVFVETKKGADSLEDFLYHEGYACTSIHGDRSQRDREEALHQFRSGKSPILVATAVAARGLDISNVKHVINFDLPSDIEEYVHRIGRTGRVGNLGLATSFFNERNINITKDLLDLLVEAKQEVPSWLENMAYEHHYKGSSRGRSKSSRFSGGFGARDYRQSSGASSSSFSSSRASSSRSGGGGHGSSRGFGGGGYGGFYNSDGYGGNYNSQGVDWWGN

Turning to CCCAAGAACCCAAGGAAC (ssRNA) [ssRNA (6-FAM r18mer)], the binding result is reported as “binds”.

As to CTCAACTCAACCCTTCAT (ssDNA) [ssDNA (6-FAM d18mer)], the binding result is on record as “binds”.

The values above are taken from paper PMC3093405, “A Motif Unique to the Human Dead-Box Protein DDX3 Is Important for Nucleic Acid Binding, ATP Hydrolysis, RNA/DNA Unwinding and HIV-1 Replication”.
